According to US20160039904A1, “STABILIZED SINGLE HUMAN CD4 DOMAINS AND FUSION PROTEINS” (priority 2013, published 2016):

Key:
Experiment in all cases: cell-based or functional assay
[1] = biological target: HIV-1 Env of isolate CNE68 (HIV-1)
[2] = biological target: HIV-1 Env of isolate Bal.EC1 TC (HIV-1)
[3] = biological target: HIV-1 Env of isolate CNE30 (HIV-1)
[4] = biological target: HIV-1 Env of isolate CNE6 (HIV-1)
[5] = biological target: HIV-1 Env of isolate CNE3 (HIV-1)
[6] = biological target: HIV-1 Env of isolate CNE46 (HIV-1)
[7] = biological target: HIV-1 Env of isolate CNE57 (HIV-1)
[8] = biological target: HIV-1 Env of isolate CH64 (HIV-1)
[9] = biological target: HIV-1 Env of isolate GX2010.36 (HIV-1)
[10] = biological target: HIV-1 Env of isolate CNE23 (HIV-1)
[11] = biological target: HIV-1 Env of isolate CNE7 (HIV-1)
[12] = biological target: HIV-1 Env of isolate CNE55 (HIV-1)
[13] = biological target: HIV-1 Env of isolate CNE17 (HIV-1)
[14] = biological target: HIV-1 Env of isolate CNE66 (HIV-1)
[15] = biological target: HIV-1 Env of isolate CH120 (HIV-1)
[16] = biological target: HIV-1 Env of isolate KNH1144.EC1 (HIV-1)
[17] = biological target: HIV-1 Env of isolate 55815.EC3 (HIV-1)
[18] = biological target: HIV-1 Env of isolate CNE47 (HIV-1)
[19] = biological target: HIV-1 Env of isolate CH70 (HIV-1)
[20] = biological target: HIV-1 Env of isolate CNE16 (HIV-1)
[21] = biological target: HIV-1 Env of isolate CNE9 (HIV-1)
[22] = biological target: HIV-1 Env of isolate 57128.VRC18 (HIV-1)
[23] = biological target: HIV-1 Env of isolate CNE11 (HIV-1)
[24] = biological target: HIV-1 Env of isolate CNE58 (HIV-1)
[25] = biological target: HIV-1 Env of isolate PBL286.VRC36aPV (HIV-1)
[26] = biological target: HIV-1 Env of isolate KNH1088.EC5 (HIV-1)
[27] = biological target: HIV-1 Env of isolate CNE20 (HIV-1)
[28] = biological target: HIV-1 Env of isolate CM240.EC1 (HIV-1)
[29] = biological target: HIV-1 Env of isolate CNE59 (HIV-1)
[30] = biological target: HIV-1 Env of isolate CAM0015BBY.EC3 (HIV-1)
[31] = biological target: HIV-1 Env of isolate YN192.31 (HIV-1)
[32] = biological target: HIV-1 Env of isolate CH110 (HIV-1)
[33] = biological target: HIV-1 Env of isolate AE03 (HIV-1)
[34] = biological target: HIV-1 Env of isolate N1 1046.e3 PV (HIV-1)
[35] = biological target: HIV-1 Env of isolate CH91 (HIV-1)
[36] = biological target: HIV-1 Env of isolate CNE40 (HIV-1)
[37] = biological target: HIV-1 Env of isolate CNE107 (HIV-1)
[38] = biological target: HIV-1 Env of isolate CNE14 (HIV-1)
[39] = biological target: HIV-1 Env of isolate AE20 (HIV-1)
[40] = biological target: HIV-1 Env of isolate CH117 (HIV-1)
[41] = biological target: HIV-1 Env of isolate A07412VRC12A (HIV-1)
[42] = biological target: HIV-1 Env of isolate CNE5 (HIV-1)

## D1D2Fc (from UniProt P01730 26-203) (Fc fusion)
[1]
  neutralization IC50: 9.7 nM
  neutralization IC90: 133 nM
[2]
  IC50, neutralization in TZM-bl cell-based assay: 0.6 nM
[3]
  neutralization IC50: 17 nM
  neutralization IC90: 211 nM
[4]
  neutralization IC50: 68 nM
  neutralization IC90: 192 nM
[5]
  neutralization IC50: > 250 nM
  neutralization IC90: > 250 nM
[6]
  neutralization IC50: 99 nM
  neutralization IC90: > 250 nM
[7]
  neutralization IC50: 250 nM
  neutralization IC90: > 250 nM
[8]
  neutralization IC50: 48 nM
  neutralization IC90: > 250 nM
[9]
  neutralization IC50: 12 nM
  neutralization IC90: > 250 nM
[10]
  neutralization IC50: > 250 nM
  neutralization IC90: > 250 nM
[11]
  neutralization IC50: 19 nM
  neutralization IC90: 161 nM
[12]
  neutralization IC50: 213 nM
  neutralization IC90: > 250 nM
[13]
  neutralization IC50: 11 nM
  neutralization IC90: 231 nM
[14]
  neutralization IC50: 159 nM
  neutralization IC90: > 250 nM
[15]
  neutralization IC50: 104 nM
  neutralization IC90: > 250 nM
[16]
  IC50, neutralization in TZM-bl cell-based assay: 4.8 nM
[17]
  IC50, neutralization in TZM-bl cell-based assay: 6.2 nM
  IC90, neutralization in TZM-bl cell-based assay: 116 nM
[18]
  neutralization IC50: 152 nM
  neutralization IC90: > 250 nM
[19]
  neutralization IC50: 7.3 nM
  neutralization IC90: 109 nM
[20]
  neutralization IC50: 11 nM
  neutralization IC90: 229 nM
[21]
  neutralization IC50: 9.9 nM
  neutralization IC90: 63 nM
[22]
  IC90, neutralization in TZM-bl cell-based assay: 41 nM
[23]
  neutralization IC50: > 250 nM
  neutralization IC90: > 250 nM
[24]
  neutralization IC50: > 250 nM
  neutralization IC90: > 250 nM
[25]
  IC50, neutralization in TZM-bl cell-based assay: 87 nM
  IC90, neutralization in TZM-bl cell-based assay: > 250 nM
[26]
  IC50, neutralization in TZM-bl cell-based assay: > 250 nM
  IC90, neutralization in TZM-bl cell-based assay: > 250 nM
[27]
  neutralization IC50: 65 nM
  neutralization IC90: > 250 nM
[28]
  IC50, neutralization in TZM-bl cell-based assay: 20 nM
  IC90, neutralization in TZM-bl cell-based assay: > 250 nM
[29]
  neutralization IC50: 10 nM
  neutralization IC90: 220 nM
[30]
  IC50, neutralization in TZM-bl cell-based assay: 41 nM
  IC90, neutralization in TZM-bl cell-based assay: > 250 nM
[31]
  neutralization IC50: 155 nM
  neutralization IC90: > 250 nM
[32]
  neutralization IC50: 28 nM
  neutralization IC90: > 250 nM
[33]
  neutralization IC50: > 250 nM
  neutralization IC90: > 250 nM
[34]
  IC50, neutralization in TZM-bl cell-based assay: 183 nM
  IC90, neutralization in TZM-bl cell-based assay: > 250 nM
[35]
  neutralization IC50: 35 nM
  neutralization IC90: > 250 nM
[36]
  neutralization IC50: 0.06 nM
  neutralization IC90: 0.5 nM
[37]
  neutralization IC50: 135 nM
  neutralization IC90: > 250 nM
[38]
  neutralization IC50: 105 nM
  neutralization IC90: 248 nM
[39]
  neutralization IC50: 50 nM
  neutralization IC90: > 250 nM
[40]
  neutralization IC50: 27 nM
  neutralization IC90: > 250 nM
[41]
  IC50, neutralization in TZM-bl cell-based assay: 57 nM
  IC90, neutralization in TZM-bl cell-based assay: > 250 nM
[42]
  neutralization IC50: 94 nM
  neutralization IC90: 236 nM
